From publication PMC8617373 (Cell Research, 2021) come the findings set out here.

As a reminder, the Kd is a measure of binding affinity in units of concentration. A lower Kd goes with tighter binding.

The assay addresses SARS-CoV-2 S-ECD-hFc (extracellular domain of the spike (S) protein, hFc-tagged) (SARS-CoV-2, UniProt P0DTC2 14-1213). The experiment in a line: flow cytometry on cells. (A flow cytometer gives signals particle by particle.)

B1: KREMEN1 expressed on HEK293E cells (receptor)
chain: ARPAPSPGLGPECFTANGADYRGTQNWTALQGGKPCLFWNETFQHPYNTLKYPNGEGGLGEHNYCRNPDGDVSPWCYVAEHEDGVYWKYCEIPACQMPGNLGCYKDHGNPPPLTGTSKTSNKLTIQTCISFCRSQRFKFAGMESGYACFCGNNPDYWKYGEAASTECNSVCFGDHTQPCGGDGRIILFDTLVGACGGNYSAMSSVVYSPDFPDTYATGRVCYWTIRVPGASHIHFSFPLFDIRDSADMVELLDGYTHRVLARFHGRSRPPLSFNVSLDFVILYFFSDRINQAQGFAVLYQAVKEELPQERPAVNQTVAEVITEQANLSVSAARSSKVLYVITTSPSHPPQTVPGSNSWAPPMGAGSHRVEGWTVYGLATLLILTVTAIVAKILLHVTFKSHRVPASGDLRDCHQPGTSGEIWSIFYKPSTSISIFKKKLKGQSQQDDRNPLVSD
Molecule B1 returned a Kd of 19.3 nM.

B2: ASGR1 expressed on HEK293E cells (receptor)
chain: MTKEYQDLQHLDNEESDHHQLRKGPPPPQPLLQRLCSGPRLLLLSLGLSLLLLVVVCVIGSQNSQLQEELRGLRETFSNFTASTEAQVKGLSTQGGNVGRKMKSLESQLEKQQKDLSEDHSSLLLHVKQFVSDLRSLSCQMAALQGNGSERTCCPVNWVEHERSCYWFSRSGKAWADADNYCRLEDAHLVVVTSWEEQKFVQHHIGPVNTWMGLHDQNGPWKWVDGTDYETGFKNWRPEQPDDWYGHGLGGGEDCAHFTDDGRWNDDVCQRPYRWVCETELDKASQEPPLL
With B2, binding was characterised by a dissociation constant (Kd) of 94.8 nM.
